{"source": "paper PMC10147923", "about": "“Pain-causing stinging nettle toxins target TMEM233 to modulate NaV1.7 function” (Nature Communications, 2023)", "key": {"TMEM233 (human) [1]": {"target": "TMEM233 (human) (UniProt B4DJY2)", "sequence (B4DJY2 whole entry)": "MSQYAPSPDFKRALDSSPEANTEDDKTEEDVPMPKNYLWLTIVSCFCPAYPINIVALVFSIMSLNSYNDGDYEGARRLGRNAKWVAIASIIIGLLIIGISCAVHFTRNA"}, "TMEM233 (human) [2]": {"target": "TMEM233 (human) (UniProt B4DJY2)", "experiment": "fluorescent ligand binding to cells (plate reader); ExTxA-488 (1–300 nM) with mock- or TMEM233-transfected HEK293 and HEK293-NaV1.7 cells in suspension, 250 mM NaCl, 25 mM HEPES, pH 7, 30 min at 4 °C, washed three times; fluorescence intensity read in 384-well plate; EC50 told for NaV1.7/TMEM233 co-expressing cells"}}, "data": [{"substance": "Alexa488-tagged excelsatoxin A (peptide)", "values": [{"measurement": "EC50 of functional potency on NaV1.7 inactivation in NaV1.7/TMEM233 co-expressing cells (electrophysiology)", "setting": "TMEM233 (human) [1]", "value": 80.9, "unit": "nM"}, {"measurement": "EC50", "setting": "TMEM233 (human) [2]", "value": 126, "unit": "nM"}]}]}
